Results published in the supplement of paper PMC10065799, “High-throughput profiling of sequence recognition by tyrosine kinases and SH2 domains using bacterial peptide display” (eLife, 2023).

These sequences were tested against MERTK (UniProt Q12866) (assay: phosphorylation enrichment, bacterial display (enrichment ratio); higher = better substrate or ligand; peptides without Tyr show the background).
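Further: 11-residue human phosphosite peptides and single-mutation variants displayed on the E. coli surface, counted by deep sequencing, each peptide's frequency after selection divided by its frequency in the unselected input library; frequency after pTyr selection over input frequency; kinase dosed for 20-30% of maximal phosphorylation in three min.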

Chain of MERTK (Q12866 whole entry, looked up): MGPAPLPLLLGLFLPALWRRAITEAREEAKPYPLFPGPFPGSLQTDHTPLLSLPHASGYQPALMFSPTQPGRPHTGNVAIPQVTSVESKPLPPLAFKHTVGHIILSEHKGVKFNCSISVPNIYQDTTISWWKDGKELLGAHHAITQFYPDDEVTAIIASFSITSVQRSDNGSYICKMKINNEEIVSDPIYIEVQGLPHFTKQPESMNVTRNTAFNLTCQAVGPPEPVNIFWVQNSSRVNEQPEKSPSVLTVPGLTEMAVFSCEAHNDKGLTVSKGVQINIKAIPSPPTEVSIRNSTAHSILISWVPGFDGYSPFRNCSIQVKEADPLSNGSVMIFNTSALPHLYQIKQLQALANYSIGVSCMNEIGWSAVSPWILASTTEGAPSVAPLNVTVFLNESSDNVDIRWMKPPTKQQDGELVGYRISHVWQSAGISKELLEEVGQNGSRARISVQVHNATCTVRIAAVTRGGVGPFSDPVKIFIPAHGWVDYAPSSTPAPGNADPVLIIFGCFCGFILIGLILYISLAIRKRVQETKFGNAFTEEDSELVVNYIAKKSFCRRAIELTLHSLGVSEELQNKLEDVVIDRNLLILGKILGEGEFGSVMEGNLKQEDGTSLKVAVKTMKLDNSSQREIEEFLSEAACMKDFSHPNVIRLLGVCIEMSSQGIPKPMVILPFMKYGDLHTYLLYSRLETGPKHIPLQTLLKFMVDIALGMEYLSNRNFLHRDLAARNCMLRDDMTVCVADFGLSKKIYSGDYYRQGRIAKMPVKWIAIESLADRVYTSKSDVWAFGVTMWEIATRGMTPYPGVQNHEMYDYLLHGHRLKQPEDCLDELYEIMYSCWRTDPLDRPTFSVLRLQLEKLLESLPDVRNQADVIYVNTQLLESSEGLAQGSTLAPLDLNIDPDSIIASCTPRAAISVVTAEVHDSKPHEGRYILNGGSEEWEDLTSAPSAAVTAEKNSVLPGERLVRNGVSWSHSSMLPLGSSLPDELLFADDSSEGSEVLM

Row | Sequence | phosphorylation enrichment
1 | PIDLYYLMDLS [ITGB2_Y131] | 13.3
2 | THLAPYSDELR [APOA1_Y190] | 0.467
3 | FFVVEYRNQKP [MUC17_Y4332_D4334N_YF] | 0.413
4 | GCLSKYSGVFS [TUBGCP6_Y1624_V1621L] | 0.46
5 | DRLASYLEKVR [KRT13_Y118] | 0.424
6 | KLPDAYEPLIL [G6PD_Y437_R439P] | 0.498
7 | ESKKHYGYSLY [ANXA3_Y295_F291S] | 0.486
8 | ERWLKYFPIEQ [HS3ST5_Y244] | 0.451
9 | DTSKMYIPHTD [EXPH5_Y782] | 0.399
10 | MCITQYKRESQ [PRNP_Y218_E219K] | 0.475
11 | NAPNSYGRRPS [CDKN2A_Y44_I49S] | 0.499
12 | LDPDSYNKFEN [FOXC1_Y159_M161K] | 0.802
13 | LNGDRYFKGIV [DCX_Y64_R59L] | 1.37
14 | AAVNGYVFGGG [ECHS1_Y137_A138V] | 0.401
15 | SHNKYYMLVAH [MFSD8_Y134_R139H] | 3.19
16 | LYSGDYYRIQG [DDR2_Y740] | 19.3
17 | SLMGCYNLTFM [HS6ST3_Y323_V320M] | 0.56

Row | Sequence | phosphorylation enrichment
18 | LRVHSYKSMQH [DRC7_Y516_P521H] | 0.896
19 | PKDSAYVTWEP | 1.39
20 | IKAGAYDFPSP [CAMK2A_Y230] | 4.85
21 | QLAPQYTFAQG [FLNA_Y1761_YF] | 0.457
22 | VKANTYEKFWP [GATM_Y100_YF] | 1.8
23 | LTERGYSFTTT [ACTB_Y198] | 0.408
24 | LTVVIYVLVGR [EPHA3_Y561_I564V] | 0.479
25 | RQQEVYLLFKQ [RARRES1_Y159_D158V_YF] | 0.478
26 | RMQLPYDSTWE [PDGFRB_Y589_P584R] | 0.447
27 | VCDSDYSASRW [LRP5_Y1552] | 0.382
28 | FRIDHYLGKEM [G6PD_Y202_YF] | 0.371
29 | CTTIHYNFMRN [TP53_Y234_C238R_YF] | 0.489
30 | VPVDGYISGLL [PAK6_Y81_M76V] | 0.602
31 | KLFRVYCDMNT [FGB_Y269_P265L_YF] | 0.432
32 | ITGNGYYFRVF [MYBPC3_Y1135_I1131T] | 0.294
33 | HDHFGYRQSVT [CD55_Y245_R240H_YF] | 0.346

These sequences were tested on AncSZ in the same assay as above.

Row | Sequence | phosphorylation enrichment
34 | PIDLYYLMDLS [ITGB2_Y131] | 6.05
35 | THLAPYSDELR [APOA1_Y190] | 0.722
36 | FFVVEYRNQKP [MUC17_Y4332_D4334N_YF] | 1.32
37 | GCLSKYSGVFS [TUBGCP6_Y1624_V1621L] | 0.778
38 | DRLASYLEKVR [KRT13_Y118] | 0.736
39 | KLPDAYEPLIL [G6PD_Y437_R439P] | 1.14
40 | ESKKHYGYSLY [ANXA3_Y295_F291S] | 0.595
41 | ERWLKYFPIEQ [HS3ST5_Y244] | 1.05
42 | DTSKMYIPHTD [EXPH5_Y782] | 0.624
43 | MCITQYKRESQ [PRNP_Y218_E219K] | 0.875
44 | NAPNSYGRRPS [CDKN2A_Y44_I49S] | 0.805
45 | LDPDSYNKFEN [FOXC1_Y159_M161K] | 1.54
46 | LNGDRYFKGIV [DCX_Y64_R59L] | 4.62
47 | AAVNGYVFGGG [ECHS1_Y137_A138V] | 0.596
48 | SHNKYYMLVAH [MFSD8_Y134_R139H] | 0.821
49 | LYSGDYYRIQG [DDR2_Y740] | 7.93
50 | SLMGCYNLTFM [HS6ST3_Y323_V320M] | 1.46

Row | Sequence | phosphorylation enrichment
51 | LRVHSYKSMQH [DRC7_Y516_P521H] | 1.4
52 | PKDSAYVTWEP | 1.66
53 | IKAGAYDFPSP [CAMK2A_Y230] | 0.811
54 | QLAPQYTFAQG [FLNA_Y1761_YF] | 0.734
55 | VKANTYEKFWP [GATM_Y100_YF] | 0.627
56 | LTERGYSFTTT [ACTB_Y198] | 0.837
57 | LTVVIYVLVGR [EPHA3_Y561_I564V] | 1.16
58 | RQQEVYLLFKQ [RARRES1_Y159_D158V_YF] | 1.57
59 | RMQLPYDSTWE [PDGFRB_Y589_P584R] | 1.23
60 | VCDSDYSASRW [LRP5_Y1552] | 1.16
61 | FRIDHYLGKEM [G6PD_Y202_YF] | 0.808
62 | CTTIHYNFMRN [TP53_Y234_C238R_YF] | 1.03
63 | VPVDGYISGLL [PAK6_Y81_M76V] | 0.911
64 | KLFRVYCDMNT [FGB_Y269_P265L_YF] | 1.11
65 | ITGNGYYFRVF [MYBPC3_Y1135_I1131T] | 1.04
66 | HDHFGYRQSVT [CD55_Y245_R240H_YF] | 0.733

The sequences below were run against FGFR3 (UniProt P22607) in the same assay as above.
Chain of FGFR3 (P22607 whole entry, looked up): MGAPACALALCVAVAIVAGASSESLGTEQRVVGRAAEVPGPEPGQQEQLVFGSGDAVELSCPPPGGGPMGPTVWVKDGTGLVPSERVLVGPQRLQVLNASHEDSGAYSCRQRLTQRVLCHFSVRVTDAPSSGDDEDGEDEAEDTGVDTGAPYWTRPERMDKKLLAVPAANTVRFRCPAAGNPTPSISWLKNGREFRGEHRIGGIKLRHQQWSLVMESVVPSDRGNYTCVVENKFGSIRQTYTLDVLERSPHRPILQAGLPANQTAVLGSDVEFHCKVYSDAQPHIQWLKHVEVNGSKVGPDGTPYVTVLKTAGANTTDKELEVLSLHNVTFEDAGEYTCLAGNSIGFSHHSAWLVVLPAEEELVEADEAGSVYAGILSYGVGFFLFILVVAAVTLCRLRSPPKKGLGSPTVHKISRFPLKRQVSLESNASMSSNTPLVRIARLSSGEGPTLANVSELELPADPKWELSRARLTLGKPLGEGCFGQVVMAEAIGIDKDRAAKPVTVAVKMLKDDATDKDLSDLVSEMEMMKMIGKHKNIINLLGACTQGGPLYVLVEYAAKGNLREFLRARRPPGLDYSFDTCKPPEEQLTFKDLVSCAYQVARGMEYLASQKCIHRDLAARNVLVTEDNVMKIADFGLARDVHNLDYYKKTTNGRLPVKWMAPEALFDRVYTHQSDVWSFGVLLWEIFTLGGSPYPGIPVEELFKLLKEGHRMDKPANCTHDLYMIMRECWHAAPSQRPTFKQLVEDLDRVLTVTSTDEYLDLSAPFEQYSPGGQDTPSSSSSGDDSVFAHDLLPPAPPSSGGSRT

Row | Sequence | phosphorylation enrichment
67 | PIDLYYLMDLS [ITGB2_Y131] | 18.6
68 | THLAPYSDELR [APOA1_Y190] | 0.594
69 | FFVVEYRNQKP [MUC17_Y4332_D4334N_YF] | 0.98
70 | GCLSKYSGVFS [TUBGCP6_Y1624_V1621L] | 0.565
71 | DRLASYLEKVR [KRT13_Y118] | 0.384
72 | KLPDAYEPLIL [G6PD_Y437_R439P] | 0.674
73 | ESKKHYGYSLY [ANXA3_Y295_F291S] | 0.474
74 | ERWLKYFPIEQ [HS3ST5_Y244] | 0.798
75 | DTSKMYIPHTD [EXPH5_Y782] | 0.577
76 | MCITQYKRESQ [PRNP_Y218_E219K] | 0.606
77 | NAPNSYGRRPS [CDKN2A_Y44_I49S] | 0.541
78 | LDPDSYNKFEN [FOXC1_Y159_M161K] | 0.97
79 | LNGDRYFKGIV [DCX_Y64_R59L] | 3.96
80 | AAVNGYVFGGG [ECHS1_Y137_A138V] | 0.629
81 | SHNKYYMLVAH [MFSD8_Y134_R139H] | 4.22
82 | LYSGDYYRIQG [DDR2_Y740] | 26
83 | SLMGCYNLTFM [HS6ST3_Y323_V320M] | 1.02

Row | Sequence | phosphorylation enrichment
84 | LRVHSYKSMQH [DRC7_Y516_P521H] | 0.69
85 | PKDSAYVTWEP | 1.45
86 | IKAGAYDFPSP [CAMK2A_Y230] | 0.462
87 | QLAPQYTFAQG [FLNA_Y1761_YF] | 0.42
88 | VKANTYEKFWP [GATM_Y100_YF] | 0.487
89 | LTERGYSFTTT [ACTB_Y198] | 0.78
90 | LTVVIYVLVGR [EPHA3_Y561_I564V] | 0.44
91 | RQQEVYLLFKQ [RARRES1_Y159_D158V_YF] | 1.19
92 | RMQLPYDSTWE [PDGFRB_Y589_P584R] | 0.963
93 | VCDSDYSASRW [LRP5_Y1552] | 0.684
94 | FRIDHYLGKEM [G6PD_Y202_YF] | 0.671
95 | CTTIHYNFMRN [TP53_Y234_C238R_YF] | 0.993
96 | VPVDGYISGLL [PAK6_Y81_M76V] | 0.656
97 | KLFRVYCDMNT [FGB_Y269_P265L_YF] | 0.701
98 | ITGNGYYFRVF [MYBPC3_Y1135_I1131T] | 0.72
99 | HDHFGYRQSVT [CD55_Y245_R240H_YF] | 0.528

The sequences below were run against Fyn (UniProt P06241) in the same assay as above.
Chain of Fyn (P06241 whole entry, looked up): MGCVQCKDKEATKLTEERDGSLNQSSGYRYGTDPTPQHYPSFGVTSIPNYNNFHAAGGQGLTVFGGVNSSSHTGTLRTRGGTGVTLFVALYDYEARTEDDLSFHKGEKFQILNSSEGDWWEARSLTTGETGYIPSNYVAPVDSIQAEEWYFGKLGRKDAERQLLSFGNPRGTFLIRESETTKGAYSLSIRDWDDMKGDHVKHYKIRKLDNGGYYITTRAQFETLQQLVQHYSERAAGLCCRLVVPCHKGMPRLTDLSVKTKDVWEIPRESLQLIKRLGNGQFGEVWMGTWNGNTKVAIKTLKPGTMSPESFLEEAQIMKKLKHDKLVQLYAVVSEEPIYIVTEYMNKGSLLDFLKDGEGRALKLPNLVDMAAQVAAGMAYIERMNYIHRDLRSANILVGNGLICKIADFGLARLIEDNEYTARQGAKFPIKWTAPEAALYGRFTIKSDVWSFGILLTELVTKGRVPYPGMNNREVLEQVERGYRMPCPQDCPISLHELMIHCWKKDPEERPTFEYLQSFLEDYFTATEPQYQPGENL

Row | Sequence | phosphorylation enrichment
100 | PIDLYYLMDLS [ITGB2_Y131] | 8.8
101 | THLAPYSDELR [APOA1_Y190] | 0.51
102 | FFVVEYRNQKP [MUC17_Y4332_D4334N_YF] | 0.623
103 | GCLSKYSGVFS [TUBGCP6_Y1624_V1621L] | 0.51
104 | DRLASYLEKVR [KRT13_Y118] | 0.366
105 | KLPDAYEPLIL [G6PD_Y437_R439P] | 0.502
106 | ESKKHYGYSLY [ANXA3_Y295_F291S] | 0.454
107 | ERWLKYFPIEQ [HS3ST5_Y244] | 0.361
108 | DTSKMYIPHTD [EXPH5_Y782] | 0.372
109 | MCITQYKRESQ [PRNP_Y218_E219K] | 0.519
110 | NAPNSYGRRPS [CDKN2A_Y44_I49S] | 0.582
111 | LDPDSYNKFEN [FOXC1_Y159_M161K] | 0.665
112 | LNGDRYFKGIV [DCX_Y64_R59L] | 2.87
113 | AAVNGYVFGGG [ECHS1_Y137_A138V] | 0.404
114 | SHNKYYMLVAH [MFSD8_Y134_R139H] | 0.418
115 | LYSGDYYRIQG [DDR2_Y740] | 11.5
116 | SLMGCYNLTFM [HS6ST3_Y323_V320M] | 0.592

Row | Sequence | phosphorylation enrichment
117 | LRVHSYKSMQH [DRC7_Y516_P521H] | 0.954
118 | PKDSAYVTWEP | 2.17
119 | IKAGAYDFPSP [CAMK2A_Y230] | 0.747
120 | QLAPQYTFAQG [FLNA_Y1761_YF] | 0.259
121 | VKANTYEKFWP [GATM_Y100_YF] | 1.47
122 | LTERGYSFTTT [ACTB_Y198] | 0.456
123 | LTVVIYVLVGR [EPHA3_Y561_I564V] | 1.12
124 | RQQEVYLLFKQ [RARRES1_Y159_D158V_YF] | 0.892
125 | RMQLPYDSTWE [PDGFRB_Y589_P584R] | 0.851
126 | VCDSDYSASRW [LRP5_Y1552] | 0.603
127 | FRIDHYLGKEM [G6PD_Y202_YF] | 0.427
128 | CTTIHYNFMRN [TP53_Y234_C238R_YF] | 0.568
129 | VPVDGYISGLL [PAK6_Y81_M76V] | 0.519
130 | KLFRVYCDMNT [FGB_Y269_P265L_YF] | 0.463
131 | ITGNGYYFRVF [MYBPC3_Y1135_I1131T] | 0.384
132 | HDHFGYRQSVT [CD55_Y245_R240H_YF] | 0.444
